What was measured:
Format in all cases: in vivo, pig
[1] = tested on: pigs fed P-adequate corn-soybean meal basal diet; test: Expt 1: metatarsal breaking strength, three-point bending test; conditions: BD + phytase 2,000 U/kg, 6 wk
Protocol: Based on results of the preliminary trials, Experiment 1 was conducted with 24 gilts (6-wk old, 8.6±0.1 kg body weight) to test the possible benefit of phytase to metatarsal breaking load of pigs fed the corn-soybean meal basal diet (BD, Table 1). The BD contained 0.33% available P and adequate concentrations of all other required nutrients (24). The selected pigs were divided into two groups (n=12), and were fed BD or BD+phytase at 2,000 U/kg for 6 wk.
Third and 4th metatarsals in both experiments and femur (right leg) in Experiment 2 were prepared by manually removing surrounding skin, muscle and other tissues. Bones were stored in closed plastic bags at 4° C. until strength analysis. Maximal breaking load was measured using an Instron 4500 Machine (Canton, Mass.) at room temperature (23° C.) by subjecting each bone to a three-point bending test^(28). During mechanical tests, force was applied to the center of the bone held by supports 2.0 cm apart for metatarsals and 3.3 cm apart for femur. The crosshead speed was set at 50 mm/min and the sample rate was 10 points/s. Final strength was determined from load-displacement curves indicating the maximum loads. The metatarsal breaking strength was expressed as the mean strength of four bones from both left and right feet of pigs in Experiment 1, and as the mean of the two bones from the right foot of pigs in Experiment 2. […]

[2] = tested on: pigs fed P-adequate corn-soybean meal basal diet; test: Expt 1: metatarsal mineral concentrations (ICP)
[3] = tested on: weanling pigs fed high P diet; test: Examples 4-8: radiographic bone density and metacarpal histomorphometry; conditions: 8 wk
Protocol: As in Examples 1-3, the animal protocol was approved by Cornell Animal Care and Use Committee. An 8-week feeding trial was conducted at Cornell University Swine Research Farm. Thirty weanling pigs (Yorkshire×Hampshire×Landrace, body weight=8.6±0.5 kg) were allocated into three groups (n=10). […] were fed a corn-soy basal diet (BD)+0.25% inorganic phosphorus (iP, dicalcium phosphate). Group 2 were fed BD+0.35% iP. Group 3 were fed BD+0.35% iP+3,400 units of phytase/kg (Escherichia coli appA2, OptiPhos, JBS United, Inc., Sheridan, Ind.). The BD (Table 7) contained adequate levels of all nutrients except for P^(63), and 0.25% iP is the supplementation level recommended by NRC^(24) to meet the P needs of this age of pigs. […] Pigs were housed in an environmentally-controlled barn (20-25° C.; 12-light: 12-dark cycle), and given free access to feed and water.
After the skin and major muscles were removed, two left legs were subjected to X-ray radiography using a Faxitron machine (Model 43855A; Hewlett Packard, McMinnville, Oreg., USA). Bone radiographs of femur and metacarpals were quantified by the kodac software. The software counted the total number of pixels. Thereafter, the 3rd and 4th metacarpals and femurs were collected to measure length, weight, height, and width after removing the remaining muscle and connective tissue. After the X-ray analysis, the two left legs were used for bone mechanical and mineral testing. Bone mechanical properties were determined by a three-point bending test (ASAE Standard S459 1992) using an Instron 4500 Machine Universal Testing Instrument (Model 1122, Instron, Canton, Mass.) with Instron Series IX Automated Materials Testing System Software (version 4.05). During testing, force was applied to the center of the bone held by supports 2.0 cm apart for metacarpals and 3.3 cm apart for femurs. The crosshead speed was set at 50 mm/min and the sampling rate was at 10 points/sec. The extrinsic parameters (stiffness/slope, maximum load, energy to break, maximum displacement) were derived from the force-displacement curve. Bone breaking strength was calculated with the adjustment of bone weight, and the average strength of the 3rd and 4th metacarpal was used as the metacarpal strength for each pig.
Metacarpals (4th) from right foot of pigs (n=5 for each group) were quickly fixed by 10% formalin for histology, decalcified, embedded in paraffin sagittally serially sectioned through the midline (8 μm), and stained with Masson's trichrome as previously described^(74). Variation of bone matrix mineralization was detected by modified tetrachrome method^(75). Sulfated proteoglycans were detected by alcian blue staining^(76) and counter staining with Mayer's acid haematoxylin. PCI software—CIMAGING System (Model 1280, Compix Inc., Cranberry, Pa.)—was applied to measure bone surface, osteoid, bone volume, trabecular thickness, number, and separation, and proteoglycans surface. Trabecular size and separation distances were measured by the software measurement scale. Trabecular numbers were counted within a specified field. For proteoglycans measurement, the total area of trabecular bone was first captured to define the region of interest (ROI). Then, within the ROI the blue color area of proteoglycans was captured and its area measured to define the object area. For osteoid measurement, the first cortical bone surface was the object. The area fraction of the deep green in the periosteal area was expressed as: Area fraction (%)=Object area/Region of interest (ROI)×100.

[4] = tested on: weanling pigs fed high P diet; test: Examples 4-8: cortical and cancellous bone ash and mineral profile; conditions: 8 wk, 0.35% iP + Sr 50 mg/kg + phytase 3,400 U/kg
[5] = 0.35% iP + Sr 50 mg/kg + phytase 3,400 U/kg, P<0.001
[6] = phytase 3,400 U/kg into the 0.35% iP diet, P<0.001
[7] = phytase 3,400 U/kg into the 0.35% iP diet, P<0.05

B1: Phytase: Escherichia coli AppA2 phytase (OptiPhos, JBS United, Inc.), added to diets at feed mixing; AppA2 is SEQ ID NO: 2 (protein, listed as Escherichia coli)
chain: MKAILIPFLSLLIPLTPQSAFAQSEPELKLESVVIVSRHGVRAPTKATQLMQDVTPDAWPTWPVKLGWLTPRGGELIAYLGHYQRQRLVADGLLAKKGCPQPGQVAIIADVDERTRKTGEAFAAGLAPDCAITVHTQADTSSPDPLFNPLKTGVCQLDNANVTDAILSRAGGSIADFTGHRQTAFRELERVLNFSQLNLCLNREKQDESCSLTQALPSELKVSADNVSLTGAVSLASMLTEIFLLQQAQGMPEPGWGRITDSHQWNTLLSLHNAQFYLLQRTPEVARSRATPLLDLIMAALTPHPPQKQAYGVTLPTSVLFIAGHDTNLANLGGALELNWTLPGQPDNTPPGGELVFERWRRLSDNSQWIQVSLVFQTLQQMRDKTPLSLNTPPGEVKLTLAGCEERNAQGMCSLAGFTQIVNEARIPACSL
- breaking strength of metatarsals [1]: 112.0 ± 3.9 kg
- greater breaking strength of metatarsals vs BD ([1]; P<0.02): 12%
- higher Sr concentration in metatarsals vs BD ([2]; BD + phytase 2,000 U/kg, 6 wk, P<0.05): 7%
- metatarsal Ca concentration ([2]; phytase 2000 U/kg, n=8): 217.3 g/kg
- metatarsal Cr concentration ([2]; phytase 2000 U/kg, n=8): 6.4 mg/kg
- metatarsal Fe concentration ([2]; phytase 2000 U/kg, n=8): 15.7 mg/kg
- metatarsal Mg concentration ([2]; phytase 2000 U/kg, n=8): 3.6 g/kg
- metatarsal Mn concentration ([2]; phytase 2000 U/kg, n=8): 1.1 mg/kg
- metatarsal Na concentration ([2]; phytase 2000 U/kg, n=8): 6.2 g/kg
- metatarsal P concentration ([2]; phytase 2000 U/kg, n=8): 109.2 g/kg
- metatarsal S concentration ([2]; phytase 2000 U/kg, n=8): 1.2 g/kg
- metatarsal Sr concentration ([2]; phytase 2000 U/kg, n=8): 62.8 mg/kg
- metatarsal Zn concentration ([2]; phytase 2000 U/kg, n=8): 176.1 mg/kg
- improvement of femur bone density (radiograph image pixel numbers) vs 0.35% iP [3, 5]: 28%
- improvement of metacarpus bone density (radiograph image pixel numbers) vs 0.35% iP [3, 5]: 20%
- increase in metacarpal bone volume vs 0.35% iP [3, 5]: 38%
- enhancement of osteoid thickness in the periosteal area [3, 6]: 60%
- increase of sulfated proteoglycans in cancellous bone [3, 6]: 18%
- decrease in trabecular separation, metacarpal bone [3, 7]: 37%
- increase in trabecular density, metacarpal bone [3, 7]: 42%
- increase in trabecular thickness, metacarpal bone [3, 7]: 51%
- decrease of Ca concentration in cancellous bones, femur and metacarpus [4]: 11 to 19%
- total ash concentration of cortical bone, femurs [4]: not altered
- elevation of Sr concentration in cancellous bone, femur ([4]; P<0.002): 127 fold
- increase in Fe concentration of cancellous bone, metacarpus ([4]; P<0.05): 22%

— patent US8192734B2, “Compositions and methods for bone strengthening” (Cornell University, priority 2007, dated 2012)
